B1: NRC3_wobSeed29_DR1_C8A_o1 (dsDNA)
DNA 1: GCGCTTAAGGGTCAAAGGTTATAGCATGAATAGAATGCGATTGACAGCGTAGAATGAAGG
DNA 2: CCTTCATTCTACGCTGTCAATCGCATTCTATTCATGCTATAACCTTTGACCCTTAAGCGC
B2: NRC3_wobSeed49_DR2_G16A_o1 (dsDNA)
DNA 1: GCCAAACTAGGTCAAAAGGTCAAAGTCCGCTTCCCGGCGATTGACAGCGTAGAATGAAGG
DNA 2: CCTTCATTCTACGCTGTCAATCGCCGGGAAGCGGACTTTGACCTTTTGACCTAGTTTGGC
B3: NRC3_wobSeed26_DR1_A23G_o1 (dsDNA)
DNA 1: GCTCTAGTTGGTCAAAGGTCACGCACTCGAAATGCGGCGATTGACAGCGTAGAATGAAGG
DNA 2: CCTTCATTCTACGCTGTCAATCGCCGCATTTCGAGTGCGTGACCTTTGACCAACTAGAGC
B4: NRC3_wobSeed53_DR2_T21C_o1 (dsDNA)
DNA 1: GCCCTTACGGGTCACGAGGTCATAGCACGACGAGCGGCGATTGACAGCGTAGAATGAAGG
DNA 2: CCTTCATTCTACGCTGTCAATCGCCGCTCGTCGTGCTATGACCTCGTGACCCGTAAGGGC
B5: NRC3_wobSeed124_DR5_C12T_o1 (dsDNA)
DNA 1: GCCCTACTGGGTCATTCAGAGGTCATTGATCATATGGCGATTGACAGCGTAGAATGAAGG
DNA 2: CCTTCATTCTACGCTGTCAATCGCCATATGATCAATGACCTCTGAATGACCCAGTAGGGC
B6: NRC3_wobSeed5_DR0_C8G_o1 (dsDNA)
DNA 1: GCCCTTAGGGGTCAAGGTTATAGCACGGGTGGTACGGCGATTGACAGCGTAGAATGAAGG
DNA 2: CCTTCATTCTACGCTGTCAATCGCCGTACCACCCGTGCTATAACCTTGACCCCTAAGGGC
B7: NRC3_wobSeed85_DR3_G15T_o1 (dsDNA)
DNA 1: GCCGTCCAAGGTCATAGAGGTCAGTGAATGCCGAGTGCGATTGACAGCGTAGAATGAAGG
DNA 2: CCTTCATTCTACGCTGTCAATCGCACTCGGCATTCACTGACCTCTATGACCTTGGACGGC
B8: NRC3_wobSeed58_DR2_G14A_o1 (dsDNA)
DNA 1: GCATCGAAAGGTCATGAGGTGAGTATACAGAAAGGCGCGATTGACAGCGTAGAATGAAGG
DNA 2: CCTTCATTCTACGCTGTCAATCGCGCCTTTCTGTATACTCACCTCATGACCTTTCGATGC
B9: NRC3_wobSeed89_DR3_G16A_o1 (dsDNA)
DNA 1: GCCTATGTAGGTTAAAGGGGTCATTCAGTTTGAAAGGCGATTGACAGCGTAGAATGAAGG
DNA 2: CCTTCATTCTACGCTGTCAATCGCCTTTCAAACTGAATGACCCCTTTAACCTACATAGGC
B10: NRC3_wobSeed72_DR2_C25G_o1 (dsDNA)
DNA 1: GCTCGAGTAGGTTACGGGGGCATTGAGGGATGAAGAGCGATTGACAGCGTAGAATGAAGG
DNA 2: CCTTCATTCTACGCTGTCAATCGCTCTTCATCCCTCAATGCCCCCGTAACCTACTCGAGC
B11: NRC3_wobSeed99_DR4_T22G_o1 (dsDNA)
DNA 1: GCTCTCGGAGGACACGAAAGGGCAGAGCTCGACATCGCGATTGACAGCGTAGAATGAAGG
DNA 2: CCTTCATTCTACGCTGTCAATCGCGATGTCGAGCTCTGCCCTTTCGTGTCCTCCGAGAGC
B12: NRC3_random_hg19_186_o1 (dsDNA)
DNA 1: GCTTTCGTTACTGTAGCCTTGTAGTATAGTTTGAAGGCGATTGACAGCGTAGAATGAAGG
DNA 2: CCTTCATTCTACGCTGTCAATCGCCTTCAAACTATACTACAAGGCTACAGTAACGAAAGC
B13: NRC3_random_hg19_341_o1 (dsDNA)
DNA 1: GCCCCAGATGACGGGTTGATATGGGCAGCAAACCGCGCGATTGACAGCGTAGAATGAAGG
DNA 2: CCTTCATTCTACGCTGTCAATCGCGCGGTTTGCTGCCCATATCAACCCGTCATCTGGGGC
B14: NRC3_random_hg19_64_o1 (dsDNA)
DNA 1: GCAATCCAATTGGAGGTGCACTCGTCTAAGTGGTCCGCGATTGACAGCGTAGAATGAAGG
DNA 2: CCTTCATTCTACGCTGTCAATCGCGGACCACTTAGACGAGTGCACCTCCAATTGGATTGC
B15: NRC3_random_hg19_391_o1 (dsDNA)
DNA 1: GCTAGATATGAGTCTGGCTTGCTGCTATCTACTTCAGCGATTGACAGCGTAGAATGAAGG
DNA 2: CCTTCATTCTACGCTGTCAATCGCTGAAGTAGATAGCAGCAAGCCAGACTCATATCTAGC
B16: NRC3_random_hg19_58_o1 (dsDNA)
DNA 1: GCAAGACTCCTGGCTCTGATTCTAAACTAAACATAGGCGATTGACAGCGTAGAATGAAGG
DNA 2: CCTTCATTCTACGCTGTCAATCGCCTATGTTTAGTTTAGAATCAGAGCCAGGAGTCTTGC
B17: NRC3_random_hg19_33_o1 (dsDNA)
DNA 1: GCATCTGCATAGAGCTAGAGCTATTGATTCAAAGAGGCGATTGACAGCGTAGAATGAAGG
DNA 2: CCTTCATTCTACGCTGTCAATCGCCTCTTTGAATCAATAGCTCTAGCTCTATGCAGATGC
B18: NRC3_random_hg19_155_o1 (dsDNA)
DNA 1: GCGAGTGCTATGCTTGCTTTCTATCTCATACAGTATGCGATTGACAGCGTAGAATGAAGG
DNA 2: CCTTCATTCTACGCTGTCAATCGCATACTGTATGAGATAGAAAGCAAGCATAGCACTCGC

Columns and labels:
RARb:RXRa = RARb:RXRa (Homo sapiens, UniProt P10826;P19793 full;full); assay: no ligand; PBM; 270 nM : 90 nM RXRa; PBS pH 7.4, 2% milk, 0.02% Triton X-100, 1 mM DTT, BSA, 0.4 mg/ml salmon testes DNA; conditions: tags: His kept;His cleaved; copies: 1;1; label: surface-attached array probe
Outline: (§1)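 Random background probes are the reference for binding z-scores. These scores derive from regression-normalized fluorescence on custom Agilent 4×180K protein-binding microarrays incubated 1 h with ligand-free nuclear receptor dimers. Binding was detected with antibodies against each partner (one per run).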

LXRb:RXRa = LXRb:RXRa (Homo sapiens, UniProt P55055;P19793 full;full); assay: as above; conditions: tags: His kept;His cleaved; copies: 1;1; label: surface-attached array probe
Outline: as §1

FXR:RXRa = FXR:RXRa (Homo sapiens, UniProt Q96RI1;P19793 full;full); assay: as above; conditions: tags: His kept;His cleaved; copies: 1;1; label: surface-attached array probe
Outline: as §1

PXR:RXRa = PXR:RXRa (Homo sapiens, UniProt O75469;P19793 full;full); assay: as above; conditions: tags: His kept;His cleaved; copies: 1;1; label: surface-attached array probe
Outline: as §1

RARa:RXRa = RARa:RXRa (Homo sapiens, UniProt P10276;P19793 full;full); assay: as above; conditions: tags: His kept;His cleaved; copies: 1;1; label: surface-attached array probe
Outline: as §1

RARg:RXRa = RARg:RXRa (Homo sapiens, UniProt P13631;P19793 full;full); assay: as above; conditions: tags: His kept;His cleaved; copies: 1;1; label: surface-attached array probe
Outline: as §1

RXRa = RXRa (Homo sapiens, UniProt P19793); assay: no ligand; PBM; 180 nM; PBS pH 7.4, 2% milk, 0.02% Triton X-100, 1 mM DTT, BSA, 0.4 mg/ml salmon testes DNA; conditions: tags: His cleaved; chain copies: 2; label: surface-attached array probe
LXRa:RXRa = LXRa:RXRa (Homo sapiens, UniProt Q13133;P19793 full;full); assay: no ligand; PBM; 270 nM : 90 nM RXRa; PBS pH 7.4, 2% milk, 0.02% Triton X-100, 1 mM DTT, BSA, 0.4 mg/ml salmon testes DNA; conditions: tags: His kept;His cleaved; copies: 1;1; label: surface-attached array probe
Outline: as §1

PPARa:RXRa = PPARa:RXRa (Homo sapiens, UniProt Q07869;P19793 full;full); assay: as above; conditions: tags: GST kept;His cleaved; copies: 1;1; label: surface-attached array probe
Outline: as §1

VDR:RXRa = VDR:RXRa (Homo sapiens, UniProt P11473;P19793 full;full); assay: as above; conditions: tags: His kept;His cleaved; copies: 1;1; label: surface-attached array probe
Outline: as §1

LXRb:RXRa, sequence (P55055 whole entry, chain 1 of 2): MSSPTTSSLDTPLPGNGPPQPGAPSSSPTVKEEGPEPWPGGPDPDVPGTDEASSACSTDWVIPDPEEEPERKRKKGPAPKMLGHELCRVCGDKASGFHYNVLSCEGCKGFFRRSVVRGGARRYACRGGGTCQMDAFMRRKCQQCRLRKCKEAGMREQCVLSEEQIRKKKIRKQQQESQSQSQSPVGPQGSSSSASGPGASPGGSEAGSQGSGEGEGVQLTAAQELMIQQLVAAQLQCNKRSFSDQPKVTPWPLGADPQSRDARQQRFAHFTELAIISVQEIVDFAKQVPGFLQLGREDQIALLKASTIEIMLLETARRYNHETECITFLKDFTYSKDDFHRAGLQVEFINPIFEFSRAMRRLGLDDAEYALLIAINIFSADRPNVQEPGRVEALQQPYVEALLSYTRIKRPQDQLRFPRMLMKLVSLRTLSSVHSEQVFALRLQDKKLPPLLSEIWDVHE
LXRb:RXRa, sequence (P19793 whole entry, chain 2 of 2): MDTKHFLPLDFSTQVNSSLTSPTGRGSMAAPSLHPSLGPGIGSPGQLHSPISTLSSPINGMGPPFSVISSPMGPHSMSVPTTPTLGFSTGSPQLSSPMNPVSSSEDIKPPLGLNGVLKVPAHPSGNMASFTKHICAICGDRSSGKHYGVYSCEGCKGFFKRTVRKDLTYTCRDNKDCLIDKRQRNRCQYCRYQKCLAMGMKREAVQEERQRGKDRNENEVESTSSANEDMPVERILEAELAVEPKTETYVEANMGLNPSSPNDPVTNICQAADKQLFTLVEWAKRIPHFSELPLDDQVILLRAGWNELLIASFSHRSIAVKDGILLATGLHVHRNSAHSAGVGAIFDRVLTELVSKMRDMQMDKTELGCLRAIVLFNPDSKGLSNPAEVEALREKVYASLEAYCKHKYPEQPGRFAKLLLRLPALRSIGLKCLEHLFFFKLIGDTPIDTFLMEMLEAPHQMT
FXR:RXRa, sequence (Q96RI1 whole entry, chain 1 of 2): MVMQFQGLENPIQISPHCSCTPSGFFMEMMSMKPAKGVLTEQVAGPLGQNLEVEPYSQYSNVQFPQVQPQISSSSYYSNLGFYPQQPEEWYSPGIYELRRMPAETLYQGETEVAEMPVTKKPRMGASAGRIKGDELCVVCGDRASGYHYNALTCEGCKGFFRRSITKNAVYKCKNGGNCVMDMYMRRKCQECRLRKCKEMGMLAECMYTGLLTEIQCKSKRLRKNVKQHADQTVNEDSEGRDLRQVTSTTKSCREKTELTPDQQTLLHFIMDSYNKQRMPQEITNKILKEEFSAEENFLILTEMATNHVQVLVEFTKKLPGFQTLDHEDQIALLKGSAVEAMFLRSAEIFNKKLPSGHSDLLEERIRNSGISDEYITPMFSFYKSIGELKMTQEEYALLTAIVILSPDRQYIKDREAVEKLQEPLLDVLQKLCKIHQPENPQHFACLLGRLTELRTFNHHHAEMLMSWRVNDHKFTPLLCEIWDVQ
FXR:RXRa, sequence (P19793 whole entry, chain 2 of 2): as the sequence (P19793 whole entry, chain 2 of 2) above
RARg:RXRa, sequence (P13631 whole entry, chain 1 of 2): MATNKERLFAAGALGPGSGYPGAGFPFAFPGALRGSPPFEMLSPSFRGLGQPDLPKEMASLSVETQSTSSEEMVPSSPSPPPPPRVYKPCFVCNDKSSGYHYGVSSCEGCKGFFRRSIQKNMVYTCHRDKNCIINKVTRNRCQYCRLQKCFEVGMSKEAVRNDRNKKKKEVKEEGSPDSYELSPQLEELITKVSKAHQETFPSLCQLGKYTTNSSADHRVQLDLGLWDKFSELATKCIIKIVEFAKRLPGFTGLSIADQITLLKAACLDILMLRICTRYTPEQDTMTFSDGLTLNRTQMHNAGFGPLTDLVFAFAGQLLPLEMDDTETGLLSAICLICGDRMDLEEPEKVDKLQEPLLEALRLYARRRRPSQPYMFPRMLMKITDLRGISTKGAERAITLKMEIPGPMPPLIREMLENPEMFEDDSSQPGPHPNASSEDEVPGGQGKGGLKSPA
RARg:RXRa, sequence (P19793 whole entry, chain 2 of 2): as the sequence (P19793 whole entry, chain 2 of 2) above
RARb:RXRa, sequence (P10826 whole entry, chain 1 of 2): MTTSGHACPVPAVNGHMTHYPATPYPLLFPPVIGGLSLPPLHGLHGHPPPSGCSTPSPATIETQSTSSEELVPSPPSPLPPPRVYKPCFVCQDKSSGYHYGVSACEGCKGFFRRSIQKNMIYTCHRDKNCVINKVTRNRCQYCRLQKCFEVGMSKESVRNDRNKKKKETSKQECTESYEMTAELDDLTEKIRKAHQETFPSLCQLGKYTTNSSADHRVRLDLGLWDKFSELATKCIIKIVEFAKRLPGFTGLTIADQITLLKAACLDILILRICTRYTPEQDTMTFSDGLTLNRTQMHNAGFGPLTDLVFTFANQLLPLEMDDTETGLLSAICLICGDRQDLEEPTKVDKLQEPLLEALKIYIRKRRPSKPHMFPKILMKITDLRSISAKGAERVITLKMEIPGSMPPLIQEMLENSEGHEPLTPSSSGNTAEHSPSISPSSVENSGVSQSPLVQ
RARb:RXRa, sequence (P19793 whole entry, chain 2 of 2): as the sequence (P19793 whole entry, chain 2 of 2) above
LXRa:RXRa, sequence (Q13133 whole entry, chain 1 of 2): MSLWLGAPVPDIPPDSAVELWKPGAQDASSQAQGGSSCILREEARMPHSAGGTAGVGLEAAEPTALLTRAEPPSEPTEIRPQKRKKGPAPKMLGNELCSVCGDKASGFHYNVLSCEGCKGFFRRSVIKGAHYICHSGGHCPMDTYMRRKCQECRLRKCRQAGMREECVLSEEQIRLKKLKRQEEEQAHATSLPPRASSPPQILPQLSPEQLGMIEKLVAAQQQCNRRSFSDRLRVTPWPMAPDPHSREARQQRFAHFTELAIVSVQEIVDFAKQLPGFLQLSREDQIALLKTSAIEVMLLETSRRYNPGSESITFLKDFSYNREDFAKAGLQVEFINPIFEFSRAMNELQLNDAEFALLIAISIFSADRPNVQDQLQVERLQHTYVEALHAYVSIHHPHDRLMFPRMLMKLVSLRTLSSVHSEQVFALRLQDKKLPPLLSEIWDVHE
LXRa:RXRa, sequence (P19793 whole entry, chain 2 of 2): as the sequence (P19793 whole entry, chain 2 of 2) above

| Binder | binding signal (RARb:RXRa) | binding signal (LXRb:RXRa) | binding signal (FXR:RXRa) | binding signal (PXR:RXRa) | binding signal (RARa:RXRa) | binding signal (RARg:RXRa) | binding signal (RXRa) | binding signal (LXRa:RXRa) | binding signal (PPARa:RXRa) | binding signal (VDR:RXRa) |
| --- | --- | --- | --- | --- | --- | --- | --- | --- | --- | --- |
| B1 | 5.58 PBM z-score against 500 random probes | 6.56 PBM z-score against 500 random probes | 8.78 PBM z-score against 500 random probes | 6.86 PBM z-score against 500 random probes | 9.1 PBM z-score against 500 random probes | 7.9 PBM z-score against 500 random probes |  |  |  |  |
| B2 | 6 PBM z-score against 500 random probes | 6.34 PBM z-score against 500 random probes |  |  | 8.77 PBM z-score against 500 random probes | 8.94 PBM z-score against 500 random probes | 9.09 PBM z-score against 500 random probes | 7.1 PBM z-score against 500 random probes | 7.14 PBM z-score against 500 random probes |  |
| B3 | 5.6 PBM z-score against 500 random probes | 6.1 PBM z-score against 500 random probes |  | 6.52 PBM z-score against 500 random probes | 8.13 PBM z-score against 500 random probes | 7.77 PBM z-score against 500 random probes |  |  |  |  |
| B4 |  |  | 8.01 PBM z-score against 500 random probes | 6.58 PBM z-score against 500 random probes | 8.05 PBM z-score against 500 random probes | 7.59 PBM z-score against 500 random probes | 8.57 PBM z-score against 500 random probes |  | 6.48 PBM z-score against 500 random probes | 6.6 PBM z-score against 500 random probes |
| B5 |  |  |  | 6.43 PBM z-score against 500 random probes | 7.55 PBM z-score against 500 random probes | 8.13 PBM z-score against 500 random probes |  |  |  |  |
| B6 | 5.75 PBM z-score against 500 random probes | 5.92 PBM z-score against 500 random probes | 8.51 PBM z-score against 500 random probes |  | 7.21 PBM z-score against 500 random probes | 7.74 PBM z-score against 500 random probes | 9.14 PBM z-score against 500 random probes | 6.63 PBM z-score against 500 random probes | 6.97 PBM z-score against 500 random probes |  |
| B7 |  |  | 7.72 PBM z-score against 500 random probes | 6.83 PBM z-score against 500 random probes | 7.13 PBM z-score against 500 random probes |  |  |  |  | 7.93 PBM z-score against 500 random probes |
| B8 | 6.03 PBM z-score against 500 random probes | 5.92 PBM z-score against 500 random probes | 8.53 PBM z-score against 500 random probes |  | 7.09 PBM z-score against 500 random probes | 7.79 PBM z-score against 500 random probes | 8.9 PBM z-score against 500 random probes | 6.98 PBM z-score against 500 random probes | 6.95 PBM z-score against 500 random probes |  |
| B9 |  |  |  | 6.77 PBM z-score against 500 random probes | 7.03 PBM z-score against 500 random probes |  |  |  |  | 8.06 PBM z-score against 500 random probes |
| B10 |  |  |  | 3.09 PBM z-score against 500 random probes | 3.03 PBM z-score against 500 random probes |  |  |  |  |  |
| B11 |  |  |  | 0.23 PBM z-score against 500 random probes | 0.47 PBM z-score against 500 random probes |  |  |  |  |  |
| B12 |  |  |  | 0.22 PBM z-score against 500 random probes | 0.29 PBM z-score against 500 random probes |  |  |  |  |  |
| B13 |  |  |  | -0.3 PBM z-score against 500 random probes | -0.22 PBM z-score against 500 random probes |  |  |  |  |  |
| B14 |  |  |  | -0.06 PBM z-score against 500 random probes | -0.24 PBM z-score against 500 random probes |  |  |  |  |  |
| B15 |  | -0.73 PBM z-score against 500 random probes |  | -0.47 PBM z-score against 500 random probes | -0.46 PBM z-score against 500 random probes |  |  |  |  |  |
| B16 |  |  |  | -0.84 PBM z-score against 500 random probes | -0.89 PBM z-score against 500 random probes |  |  |  |  |  |
| B17 | -1.35 PBM z-score against 500 random probes |  |  | -1.09 PBM z-score against 500 random probes | -1.05 PBM z-score against 500 random probes |  |  |  |  |  |
| B18 |  | -0.78 PBM z-score against 500 random probes |  |  | -1.16 PBM z-score against 500 random probes | -0.56 PBM z-score against 500 random probes |  | -0.77 PBM z-score against 500 random probes | -0.78 PBM z-score against 500 random probes |  |

Reference: PMC6555819, “Comprehensive study of nuclear receptor DNA binding provides a revised framework for understanding receptor specificity”
